test: soluble on expression in E. coli; label from the status in PepcDB or PDB records

Sequence | soluble on expression in E. coli
MHTILILGAGPAGAAVALGLRRLGYPVTLVSDWRRFPALEGVSLRVLEALRGAGLEQALAQALQPSQRRVAWNGAEHAQNIEYLLDRPAFDRGLREALREAQVKLIEGRVLGVQSSEAGHRVQVQGQGEVRGEFLVEARGRQAPVLDKALRQGGGKGLRGPETVSLLNRWQGPGGSATSAVHSLEDGWAWMARREDGQCYWQLTLDVESAGLPGKAQLLEYCRQRRLGSAMAREFFAGGQEQQLHLHARSSTAILNPQACGANWLRVGDAAMAVDPLSGNGIFQSLSSALQAPAVINTLLQQPQRAALAQRFHGQRVEQLFLRFARIGRDFYADEQRWPEQPFWQARRQWPDCQPAHIAVDFSALRIERAPVLRDGLVDEAEVVITPDQPLGIWHVQGVELAPLLRRLRSQGAAQALAQLSPDQNRLIRSWLLAQGYRPLEHHHHHH | not soluble
MHTKGPTPQQHDGSALRIGIVHARWNETIIEPLLAGTKAKLLACGVKESNIVVQSVPGSWELPIAVQRLYSASQLQTPSSGPSLSAGDLLGSSTTDLTALPTTTASSTGPFDALIAIGVLIKGETMHFEYIADSVSHGLMRVQLDTGVPVIFGVLTVLTDDQAKARAGVIEGSHNHGEDWGLAAVEMGVRRRDWAAGKTE | soluble
MHTNERKTVVYEYQNEQEVVMKVKELELQGVRHDDIYVLAHEKHITKRIADDTNTNTIGVKEQGLGTSIINFFSKKGDELRNQMEEMGLSKEEANLYEEKLDQGKILLLVTAEVPMANDRQPQNYHSL | not soluble
MHVAIIGGGISGIAAAFYLAQQKVSIDIFESENQIGGRAGSDFLQERRVDFGGKNIGRNYLLFREFARAYGDPAFEYFGINTSQLINGRIVSISREGSAWLNLLKIIRLCGLRKGITRLYPHIQAILNDRSQGVLCSDYFRALSENFDHLTLDRYLNQRCIDRVIRPITIRMNGAEPEECYPGNFGSNLALALDSFEQLTLGMYNLLDTFIASHRQESSFRILTGHRVTSIAKDQDKFRINYLNGAVSGTGSYDRIISALPAYSLAELLQDELPEASRLLNKISYFPVSIAIVKYRDEVFPQNRRAMVFDRNSPLSNAGAYGLNDLDIVRYTFSGKASRAAISEHSTPEEVISLGEKTASPYFSIKDNPKEAFVFRYFPKGLCAYSPKHHLLLEEIDRLVNRLSGFGTTGDYRRGASIEACFRAAKECIEKVVGDGSLEHHHHHH | soluble
MHVFDNNGIELKAECSIGEEDGVYGLILESWGPGDRNKDYNIALDYIIERLVDSGVSQVVVYLASSSVRKHMHSLDERKIHPGEYFTLIGNSPRDIRLKMCGYQAYFSRTGRKEIPSGNRTKRILINVPGIYSDSFWASIIRGELSELSQPTDDESLLNMRVSKLIKKTLSQPEGSRKPVEVERLQKVYVRDPMVKAWILQQSKGICENCGKNAPFYLNDGNPYLEVHHVIPLSSGGADTTDNCVALCPNCHRELHYSKNAKELIEMLYVNINRLQKLEHHHHHH | soluble
MHVMIFGAGYSGKAIANALKTKAASVCGTTRSADKFANLAAAGMTPLLFDGVHLDDDLIAAMRNVTHLVQSIAPGKDGDPLFALLGGDLKKLLPNLKWLAYLSTVGVYGDHHGAWVNETTPCRPVSARSVERVAAEAAWTEAAQSADVPLSILRLSGIYGPGRNTFMNFEKGTARRLVKKDQVFNRIRVEDIGAAIAFLALKNERGIFNVTDDEPCPPQDVVSFAADLMGVVPPAEQDFGTADLTPMARSFYGENKRVSNAKIRELGFDFRFPEYRQSLKQLWESSLWRG | not soluble
MHYHGSCHCGTIRFDVEGELTGAMSCNCSICRRKGALLWFVPRDHLRLATPDEQIATYTFNRHLIKHRFCPTCGIHTHGEGVDQQGRAMAAINIRCLDDVDLDAVAVHQYDGRAALEHHHHHH | soluble
MIATKDIRIEKDFLGEKEVPSIAYYGVQTLRAVENFPITGYRIHPSLITAMAIVKKAAALANMDTGYLAKDIGHEIAEAAQEIVDGKFHDQFIVDPIQGGAGTSINMNTNEVIANRALERMGYEKGEYAKISPNTHVNMAQSTNDAFPTGIHIATLMRLEELLITMEELHAAFRAKAKEFDHVIKMGRTHLQDAVPIRLGQEFEAYSRVLARDIKRIKQSRQHLYEVNMGATAVGTGLNANPTYIEQVVKHLRTFSGFPLVGAEHLVDATQNTDAYTEVSAALKVCMMNMSKIANDLRIMASGPRVGLAEIQLPARQPGSSIMPGKVNPVMAEVINQVAFQVIGNDHTICLASEAGQLELNVMEPVLVFNLIQSISIMNNGFRVFREYCIKGITANEELLKQYVEKSVGIITAVNPHIGYEAASRIAREAIETGKSVRELCLEHGVLTEEELDIILDPFEMTHPEIAGASLLKDKKM | not soluble
MIDALLQEKITTRLIDTAPTIPVGVSNRHVHLSQQDVEALFGVGYQLTPFKPLRQPGQFAAEECVTVVGPKGSLTHVRVLGPVRPTSQLEISRADCFTLGIKAPVRESGQLENAGDALLVGPKGHVELHSQVICAWRHIHMSPQDARLLNVSNGQKVSVRSHGERQLTFDEVVVRVRNDFALELHIDTEEANAAGLKNGAQVTLIR | not soluble
MIDDLLNFFNSFNVVKNYKLINQLKNEVDTLKSRLDIPRELLDGFYADRNSREYREVYEKDAPLVTVCIGTYNRGKLLVERSVRSVLEQSYGNIELIVVGDCCTDDTPRLVQGITDPRFRFINLPERGNYPENPLHRWCVAGTVPFNYALSQARGDFITHLDDDDEFVPDRIEKLVKFIQREKADLVWHPFWYERSNGRWAMRKAQEFSGGKVTTSSIFYHRWFTAVPWDIEAYRYQEPGDWNRLRKIKYLGARVARYPEPLLRHYCERNQESLSSRTIQTRNTKLEHHHHHH | not soluble
MIDKSAFIHPTAIVEDGAVIGANAHIGPFCIVGPQVEIGEGTVLKSHVVVNGQTKIGRDNEIYQFASIGEVNQDLKYAGEPTRVEIGDRNRIRESVTIHRGTVQGGGLTKVGSDNLLMINAHVAHDCTVGNRCILANNATLAGHVSVDDFAIIGGMTAVHQFCIIGAHVMVGGCSGVAQDVPPYVIAQGNHATPFGVNIEGLKRRGFSREGLVAIRNAYKLLYRSGKTLDEAKLEIAELAEKHPEVKAFTEFFERSTRGPIR | not soluble
MIDLHCHSTVSDGMLSPAEVVRLAHQNGCTLLALTDHDHTGGIAEARAEADKLGLRLINGVEISVTWRGRTIHVVGLDFDEQDENLQNLLAQVRKGRLKRLEAIAAKLEKKGIGGAYDGALALAANKEMVSRTHVAEFLIQAGHVKNKQQAFTKYLGDGKSCAVRHEWATLEDCVSAVNGAGGMAVIAHPMRYDLSATAKRNLFEEFKNLGGAGIEVHSGNCCKNDRLNYALLAERFGMLASAGSDFHRLNDFSGGILGACPELPENCKPVWEHFSRY | not soluble
MIDLYYAPTPNGHKITLFLEEAELAYRLLKVDISKGNQFRPDFLAISPNNKIPAIVDHAPADGGQPLSLFESGEILLYLAEKSGKLLSGELRERHTTLQWLFWQVGGLGPMLGQNHHFNHFAPQAIPYAIERYQVETQRLYNVLNKRLETSPWLGGDHYSIADIASWPWVNAHQRQRIDLDTYPAVYNWFERIRTRPATARALLQAQLHCNSTKA | not soluble
MIDRLAMIGVNVKTASREHVARLEKEWEKHLDTIGYASRGTVIIATCNRFEVYLDSPSRLVEDLASSIASPGGEGLVRLQGIDAARHLFRVASGLESQIIGDHEVLGQVRRAWLKSREKGFTTPLLDEVFHRALKTGARVRSESAISSGGVGYSSAAVSLAASLLGGGLDGARVGIVGAGMAAVGIARALCTRWRPRVVAVFNRTPERGWEVAGKCRGVESLVLPLDELAKLINELDALFVAIAGSTNILERGRVERGVSPRVIVDISNPPVTPKVAGRVFHMPEVEEEAKRMMEERLRWIPAAEAIIEEELEALLDALSRRRARESSRSVMRALSILAEREYERTLAGLRNGVDPREAVELALNSYTKKVGGALRRLLEEASDRGQLSLEDIEAILVSEFARIAENSGFKNGSTG | soluble
MIDSQGWYRLARKVPSPHCDVRHDSEDISLLVVHNISLPPGQFGGPYIEQFFLGELDANQHSFFKVIAKMRVSAHCVIRRDGEVVQFVPFHLRAWHAGVSSFAGRAKCNDYSIGIELEGSDFVPYTDAQYQALTELTQALMVRYPHITLPRITGHQYIAPLRKTDPGLVFDWRRFRAGLKS | not soluble
MIDYTAAGFTLLQGAHLYAPEDRGICDVLVANGKIIAVASNIPSDIVPNCTVVDLSGQILCPGFIDQHVHLIGGGGEAGPTTRTPEVALSRLTEAGVTSVVGLLGTDSISRHPESLLAKTRALNEEGISAWMLTGAYHVPSRTITGSVEKDVAIIDRVIGVKCAISDHRSAAPDVYHLANMAAESRVGGLLGGKPGVTVFHMGDSKKALQPIYDLLENCDVPISKLLPTHVNRNVPLFEQALEFARKGGTIDITSSIDEPVAPAEGIARAVQAGIPLARVTLSSDGNGSQPFFDDEGNLTHIGVAGFETLLETVQVLVKDYDFSISDALRPLTSSVAGFLNLTGKGEILPGNDADLLVMTPELRIEQVYARGKLMVKDGKACVKGTFETA | soluble
MIEIPSDLHKDLVPLVFLLGDWAGAGVHDFPGAEKCNFGQEVSFTHDGRDFLEYQSHTWVLDNDGNKVRPLESEHGFWRIDANRKVEVTMTRDDGVIEIWYGELADQKPQIDLVTDAVARTAASQPYTGGKRLYGYVKSDLMWVGEKQTPEVELRPYMSAHLKKVVTPEDVERWAKALPDDMPDDGIAFFKLEHHHHHH | not soluble
MIELYSNAKLPTEFGLFRIYTFVNDENKDHAVIVRGDPRGKENVPLRIHSECLTGDVLGSLRCDCRDQLIQSLRYLGRQEYGMLIYLRQEGRGIGLLNKIKAYSLQDMGADTVEANLKLGLPVDSRNYSFAAEVLRYFEIKSIYIMTNNPEKIKSLIESGINVKGRIPIFSDPTPYDKFYLETKKTKLGHEIENILEHHHHHH | soluble
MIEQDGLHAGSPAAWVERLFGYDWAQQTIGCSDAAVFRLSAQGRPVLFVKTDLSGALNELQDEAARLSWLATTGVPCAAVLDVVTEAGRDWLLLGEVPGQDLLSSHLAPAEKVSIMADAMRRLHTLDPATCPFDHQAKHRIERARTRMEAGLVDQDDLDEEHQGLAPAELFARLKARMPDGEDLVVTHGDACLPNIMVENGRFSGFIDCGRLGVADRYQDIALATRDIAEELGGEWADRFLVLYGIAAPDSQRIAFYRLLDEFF | soluble
MIEQPSPKVYDELLSIWEEAVRSTHHFLTEADIQFYKPLIRHEYLAAVRLYIIREDSGTIAAFMGLSNDCIEMLFVRPNAHGHGYGSRLVEFAIRKKRIYKVDVNEQNAAALGFYLHMGFETTGRDALDATGKPFPILHLQIPPIRLRKATLEDIDLLRTLFTQSVQNTCSTDYNRLQIQAWTGRGTLQRWHELFQSDLYFLLAEDSRKSQVAGFTSVNSKGYLHSMFVHPDYQRQGIASRLLLKAEEYVRIRQGVSVYSEVSITARPFFEKHGYSIEKEQTVSVGDIEMTNFLMYKRI | not soluble
MIERVKGTRDFLPEDMAKRRWVFEKIREVFEAYGFKEILTPVMEYTKLFQLRSGEEVVKQLYAFKDKGGRDVSLRPDMTSSVARLYVNSFQMAPKPIKWYYIANMFRYEEPQSGRYREFWQAGVELIGSDKVEADAEVIALFVESYLSTGLRDFTVNIGDRILLDEFAGMLGVSDDIGLMRIIDKRDKLSQEEFINLLKEFGLGESEIEKVLELVEIKGRPDNVLPLAEELFKSKKAKEEISKLYKLTDLLEWYGVKDWIRIDLGIARGFDYYTSIVFEAISPNELGIGSIGGGGRYDNLIEIFGGKPTPATGFAIGIERLLPILEWKGLIPKPQTGPEVFVIPLKDMEKVAINIAVKLRREKIKTDIELSGRKLGKALDYANRVGAKLVIIVGKRDVERGVVTIRDMESGEQYNVSLNEIVDKVKNLLKR | soluble
